According to PMC4268710:

Molecular target: OM14 assembled in the outer membrane of isolated mitochondria (S. cerevisiae (endogenous in yeast)) (UniProt P38325)
Experiment: co-sedimentation; 10 μg purified yeast ribosomes with 25 μg highly purified mitochondria (OM14^+ or OM14Δ, from NAC-deleted cells), 5 min at room temperature in MA buffer, 10,000 g; Rpl3 in the pellet normalised to Tom20

UniProt P38325, sequence (P38325 whole entry): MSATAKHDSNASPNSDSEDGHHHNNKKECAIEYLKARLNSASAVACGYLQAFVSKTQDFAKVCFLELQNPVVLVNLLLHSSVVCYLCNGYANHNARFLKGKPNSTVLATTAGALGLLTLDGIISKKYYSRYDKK

yeast cytosolic ribosomes (from UniProt P14126 1-387) (complex)
fold ribosomal association, mitochondria with OM14 over OM14Δ mitochondria: > 2 fold
